The values below come from FireProtDB (doi:10.1006/jmbi.1997.1365).

The conditions of this data set: Homo sapiens, pH 2.7, Thermal, DSC, glycine 0.05 M, reversible: yes, whole UniProt chain shown.

B1: Lysozyme C wild type, P61626 (protein)
chain: MKALIVLGLVLLSVTVQGKVFERCELARTLKRLGMDGYRGISLANWMCLAKWESGYNTRATNYNAGDRSTDYGIFQINSRYWCNDGKTPGAVNACHLSCSALLQDNIADAVACAKRVVRDPQGIRAWVAWRNRCQNRDVRQYVQGCGV
A word on the Tm: it is the temperature at which the thermal transition is half complete. As for B1, the Tm came out at 64.9 °C and the “heat capacity change of unfolding” value is 1.58 kcal/mol/K. Further, where the note is “64.9 °C”, the “heat capacity change of unfolding” value stood at 1.58 kcal/mol/K, the “unfolding enthalpy (calorimetric)” value was determined as 114 kcal/mol and the “unfolding enthalpy (van 't Hoff)” value amounted to 120 kcal/mol.
